Assay results: article doi:10.1101/638080

Molecular target: Chloride Intracellular Channel 1 (CLIC1), human, with N-terminal twin strep tag (human) (UniProt O00299)
Test: mass photometry

Chloride Intracellular Channel 1 (CLIC1), human, with N-terminal twin strep tag (from UniProt O00299 1-241) (natural protein)
stoichiometry N: 6
